We go through one molecule from publication PMC8044712 (STAR Protocols, 2021).

This assay concerns the target T1, ΔN100 y-mtRNAP (yeast mitochondrial RNA polymerase lacking the N-terminal 100 residues) (S. cerevisiae, UniProt P13433 101-1351).
T1 sequence (looked up): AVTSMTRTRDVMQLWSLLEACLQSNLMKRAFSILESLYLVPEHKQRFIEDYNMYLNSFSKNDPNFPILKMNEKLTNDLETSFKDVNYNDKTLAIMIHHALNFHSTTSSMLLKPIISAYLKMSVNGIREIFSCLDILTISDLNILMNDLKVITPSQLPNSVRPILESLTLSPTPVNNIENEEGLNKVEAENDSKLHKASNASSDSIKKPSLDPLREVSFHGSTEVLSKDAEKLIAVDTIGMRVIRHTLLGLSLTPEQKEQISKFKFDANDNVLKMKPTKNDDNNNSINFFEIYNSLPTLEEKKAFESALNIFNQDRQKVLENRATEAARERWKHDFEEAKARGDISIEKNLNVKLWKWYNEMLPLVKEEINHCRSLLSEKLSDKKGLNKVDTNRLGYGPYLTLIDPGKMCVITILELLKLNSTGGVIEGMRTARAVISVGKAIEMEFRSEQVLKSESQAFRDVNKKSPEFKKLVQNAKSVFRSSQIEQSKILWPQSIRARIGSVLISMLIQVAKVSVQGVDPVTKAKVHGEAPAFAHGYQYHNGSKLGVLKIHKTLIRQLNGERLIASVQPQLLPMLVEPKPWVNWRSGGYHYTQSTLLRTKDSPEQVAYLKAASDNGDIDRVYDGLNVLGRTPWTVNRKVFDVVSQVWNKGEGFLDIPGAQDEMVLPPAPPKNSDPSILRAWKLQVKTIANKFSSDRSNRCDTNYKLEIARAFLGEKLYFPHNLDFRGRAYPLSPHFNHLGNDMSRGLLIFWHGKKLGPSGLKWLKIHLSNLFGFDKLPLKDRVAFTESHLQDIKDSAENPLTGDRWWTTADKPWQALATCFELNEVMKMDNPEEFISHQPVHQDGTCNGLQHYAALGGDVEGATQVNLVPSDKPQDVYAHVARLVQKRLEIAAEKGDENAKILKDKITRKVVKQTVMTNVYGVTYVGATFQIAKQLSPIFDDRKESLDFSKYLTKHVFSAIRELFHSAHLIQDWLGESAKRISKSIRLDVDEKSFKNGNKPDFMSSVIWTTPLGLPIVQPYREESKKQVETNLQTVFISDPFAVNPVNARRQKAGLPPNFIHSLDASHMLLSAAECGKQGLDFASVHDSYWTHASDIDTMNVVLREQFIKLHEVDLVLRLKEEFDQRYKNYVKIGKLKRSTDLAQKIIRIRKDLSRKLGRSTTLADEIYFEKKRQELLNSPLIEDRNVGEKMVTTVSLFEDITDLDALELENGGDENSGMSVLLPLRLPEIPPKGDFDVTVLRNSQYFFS
Kind of assay: cryo-EM structure.

B1: His-6 tagged MTF1 from S. cerevisiae (mitochondrial transcription initiation factor MTF1) (natural protein)
chain: SVPIPGIKDISKLKFFYGFKYLWNPTVYNKIFDKLDLTKTYKHPEELKVLDLYPGVGIQSAIFYNKYCPRQYSLLEKRSSLYKFLNAKFEGSPLQILKRDPYDWSTYSNLIDEERIFVPEVQSSDHINDKFLTVANVTGEGSEGLIMQWLSCIGNKNWLYRFGKVKMLLWMPSTTARKLLARPGMHSRSKCSVVREAFTDTKLIAISDANELKGFDSQCIEEWDPILFSAAEIWPTKGKPIALVEMDPIDFDFDVDNWDYVTRHLMILKRTPLNTVMDSLGHGGQQYFNSRITDKDLLKKCPIDLTNDEFIYLTKLFMEWPFKPDILMDFVDMYQTEHSG
As for B1, the binding result is on record as “binds”.
